One data set deals with HT1080 cells. The data set can be described thus: CACE single-cell analysis: loading and release of cargo. Format: cell-based, human.
In data set [1] the target is T1, PKB (Homo sapiens, UniProt P31749).
T1 construct: endogenous in cells; host or cells: HT1080 cells; HT1080/PTEN cells (engineered to over-express wild type PTEN, PKB itself not transfected)
The data set can be described thus: CACE: intracellular phosphorylation of PKB substrate in HT1080 cells. The data set is classed as cell-based. The text has this: Since the properties of F-PKB (SEQ ID NO:17) microinjected into HT1080 cells have been well characterized, experiments were undertaken to compare the fate of F-PKB-C loaded as F-PKB-C-SS-TAT (SEQ ID NO:16) into HT1080 cells to that of the microinjected F-PKB (SEQ ID NO:17). When microinjected, the percentage of phosphorylated F-PKB depended on the relative, steady-state levels of both the kinases and phosphatases. This observation is shown in electrophoretic traces from cells loaded with F-PKB-C-SS-TAT (1 μM) (FIG. 6). A single asterisk denotes the migration time of F-PKB, and a double asterisk denotes the migration time of phosphorylated F-PKB from cells on the day of the experiment.
(§1) CACE has been previously described (Sims, Meredith et al. 1998; Meredith, Sims et al. 2000; Li, Wu et al. 2001). Briefly, cells were placed on an inverted fluorescence microscope stage (Diaphot 300, Nikon, Japan) and maintained at 37° C. with an objective heater (Bioptechs; Butler, Pa.) prior to lysis unless stated otherwise. The cells were continually washed with ECB maintained at 37° C. (unless otherwise indicated) with a flow rate of 1 ml/min and a total chamber volume of 0.5 ml. The inlet of a capillary (30 μm I.D., 360 μm O.D., 75 cm long) was positioned 10 μm above the cell. The inverted microscope was coupled to a pulsed Nd:YAG laser and a CE system (Sims, 1998). The CACE-based assay was performed as previously described (U, 2001; Meredith, 2000). Cells were always maintained in ECB when analyzed by the CACE.
CE was performed as described (Sims, Meredith et al. 1998), with the following modifications. The inner walls of the capillaries (30 μm I.D., 360 μm O.D.) were coated with poly(acrylate) (Wang, Hu et al. 2003). The outlet of the capillary was held at a negative potential of 18-21 kV, and the inlet reservoir was held at ground potential. Under these conditions, the current through the capillary was typically ˜36 μA. Solutions of standards were loaded into the capillary by gravitational fluid flow. The loaded volume was calculated from Poiseulle's equation and from contributions by spontaneous fluid displacement and diffusion (Weinberger, 2000; Fishman, 1994; Crank, 1989). To estimate the number of moles of peptide in an unknown solution or within a cell, the peak area from the electrophoretic trace of the solution or the cell was compared to that of a standard of known concentration separated by electrophoresis on the same day. A 1 pL cell volume and 100% peptide recovery was assumed in calculating intracellular peptide concentration (Meredith, Sims et al. 2000; Sims, Meredith et al. 1998). Analytes were detected by laser-induced fluorescence (Sims, Meredith et al. 1998).
Cells were incubated at room temperature for 5 minutes in 1% bovine serum albumin (BSA) in ECB, washed in ECB, and then incubated for 5 minutes at room temperature with a substrate conjugated to TAT(49-57). The cells were then washed with 1% BSA in ECB. Cells loaded with the disulfide conjugate were placed in supplement DMEM (10% FCS, 4 mM L-glutamine, 100 U/mL penicillin and 100 μg/mL streptomycin) and incubated at 37° C. in 5% CO2 for 20 minutes. Cells loaded with the photolabile conjugate were placed in supplemented DMEM and incubated at 37° C. in 5% CO2 for 10 minutes (unless stated otherwise) and were then illuminated with a UV light source for 10 seconds (a radiant energy/unit area of 2 kJ/m^2). The supplemented DMEM was exchanged and the cells were incubated another 10 minutes at 37° C. in 5% CO2. Just prior to analysis the cells were washed into ECB.

Data set [2] is described as follows: In vitro UVA photocleavage of photolabile conjugate, CE quantification. Format: physicochemical. The text has this: Therefore, we designed a second detachable linker between the TAT(49-57) and the substrate peptide. An Fmoc-aminoethyl photolabile moiety was inserted between the fluorescently-labeled substrate and the TAT(49-57) sequences using standard Fmoc peptide chemistry. The relative order of the different portions of the conjugate was: fluorescein-substrate-PLL-TAT(49-57). Two different substrate peptides were conjugated to TAT(49-57) to form F-PKB-PLL-TAT (SEQ ID NO:18) and F-CamKII-PLL-TAT (SEQ ID NO:19). To determine the time and irradiation intensity needed to photocleave the conjugated peptides, standard solutions (1 nM or 10 μM) of F-PKB-PLL-TAT (SEQ ID NO:18) were illuminated with long-wavelength UV light (UVA) for varying times. The sample was then loaded into a capillary and electrophoresis performed. The concentration of the released substrate peptide was quantified from its fluorescence. At the irradiation intensity used, maximal cleavage of the substrate peptide from the TAT(49-57) sequence was achieved within 20 minutes. […] After a 10 s exposure, 2% of the conjugate was photoreleased. […] The fluorescein was not substantially photobleached by the UVA-induced cleavage since the amount of fluorescent peptide detected after a 4 h irradiation was almost identical to that after 20 min of UVA exposure.
The photolabile TAT(49-57) conjugate (e.g., SEQ ID NOs:18 or 19) (1 nM or 10 μM in ECB) was illuminated with ultraviolet A (UVA; 20 mW/cm^2) using a 365 nm light source (UVP Blak-Ray B100AP; Upland, Calif.). […] for the photolabile group was 365 nm. After photo-release, the fluorescent substrate was resolved by electrophoresis and then quantified by CE. Detection wavelengths were: excitation, 488 nm; emission, 505-565 nm.
A known concentration of the photo-cleavable reporter was placed in an uncapped, shallow vial. The sample was then illuminated with the UV light source for varying times as described above. A small amount of the sample was then removed and the amount of released peptide was quantified using CE. […]

The target in data set [3] is T1, PKB. In words: CACE: intracellular phosphorylation of PKB substrate in HT1080/PTEN cells. Format: cell-based. The following applies: 1 μM extracellular, UVA 10 s. On the procedure: Previous investigators developed cleavable PTD-cargo conjugates by engineering a disulfide linkage between the two domains (Stein, Weiss et al. 1999; Hallbrink, Floren et al. 2001). […] TAT(49-57)(SEQ ID NO:2) was conjugated via a disulfide bond to cysteines added to substrate peptides for CamKII (F-CamKII-C; SEQ ID NO:13) or PKB (F-PKB-C; SEQ ID NO:14), denoted F-CamKII-C-SS-TAT (SEQ ID NO:15) and F-PKB-C-SS-TAT (SEQ ID NO:16), respectively. The TAT(49-57)-Conjugated substrates were incubated with cells (HT1080 or HT1080/PTEN cells) and the contents of the cells were analyzed by the CACE. […]
CACE has been previously described (Sims, Meredith et al. 1998; Meredith, Sims et al. 2000; Li, Wu et al. 2001). Briefly, cells were placed on an inverted fluorescence microscope stage (Diaphot 300, Nikon, Japan) and maintained at 37° C. with an objective heater (Bioptechs; Butler, Pa.) prior to lysis unless stated otherwise. […] Cells were always maintained in ECB when analyzed by the CACE.
(§2) CE was performed as described (Sims, Meredith et al. 1998), with the following modifications. […] The loaded volume was calculated from Poiseulle's equation and from contributions by spontaneous fluid displacement and diffusion (Weinberger, 2000; Fishman, 1994; Crank, 1989). […] Analytes were detected by laser-induced fluorescence (Sims, Meredith et al. 1998). […]

For the next data set, the system named is CamKII. The data set can be described thus: CACE: intracellular phosphorylation of CamKII substrate in HT1080 cells. Format: cell-based, human. On the procedure: To determine whether the detached peptide substrates were in the cytosol and accessible to kinases, the intracellular phosphorylation of the translocated cargo was studied. In the initial experiment, F-CamKII-C-SS-TAT (SEQ ID NO:15) at 750 nM extracellular concentration was loaded into HT1080 cells. The cells were incubated with ionomycin (500 nM) for 15 min to increase the intracellular concentration of free Ca^2+ and activate the CamKII enzyme (Worrell and Frizzell 1991). […] The migration time of the second peak was identical to that of phosphorylated F-CamKII-C loaded into cells. 52+3% (mean±SEM) (n=5) of the F-CamKII-C was phosphorylated as determined by comparison of the peak areas. At least half of the F-CamKII-C was in the cytosol and accessible to the kinase. For these cells the average number of moles per cell was ˜2×10^−20 which is equivalent to a cytosolic concentration of ˜100 nM.
as §1, §2

Ends that are not written are not given here.

T1 sequence (P31749 whole entry): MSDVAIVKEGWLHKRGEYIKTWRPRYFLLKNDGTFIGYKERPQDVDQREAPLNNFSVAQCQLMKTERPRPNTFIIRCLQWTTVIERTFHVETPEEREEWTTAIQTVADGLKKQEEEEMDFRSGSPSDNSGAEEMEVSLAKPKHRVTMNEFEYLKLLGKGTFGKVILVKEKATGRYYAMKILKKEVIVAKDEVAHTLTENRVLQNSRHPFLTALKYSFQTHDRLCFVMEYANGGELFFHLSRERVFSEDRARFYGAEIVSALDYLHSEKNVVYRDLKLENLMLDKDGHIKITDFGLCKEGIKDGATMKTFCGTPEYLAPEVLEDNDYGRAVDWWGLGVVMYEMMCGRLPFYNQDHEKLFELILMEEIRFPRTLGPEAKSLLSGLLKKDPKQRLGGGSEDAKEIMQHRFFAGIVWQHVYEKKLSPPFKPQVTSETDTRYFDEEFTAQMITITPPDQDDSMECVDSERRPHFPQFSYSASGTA

Regarding “Gly Arg Pro Arg Ala Ala Thr Phe Ala Glu Gly Arg Lys Lys Arg Arg Gln Arg Arg Arg (GRPRAATFAEGRKKRRQRRR-NH2; not fully specified (residue 11, N-terminus); printed as Gly Arg Pro Arg Ala Ala Thr Phe Ala Glu Gly Arg Lys Lys Arg Arg Gln Arg Arg Arg; also: fluorescein, position not given here, photolabile linker, position not given here) [F-PKB-PLL-TAT, fluorescein-PKB substrate-photolabile linker-TAT(49-57)]”, in the data set on HT1080 cells (1 μM 5 min, 30 min incubation, UVA 10 s), the “cytoplasmic concentration of free F-PKB” value was about 200 nM. Further, in the data set on HT1080 cells (1 μM 5 min, 30 min incubation, UVA 10 s, n=15), the “average quantity of F-PKB detected per cell” value worked out at 2e-19 ± 9e-20 mol. For the same substance, the “internalization process into the cytosol” value in the data set on HT1080 cells (1 μM, 37° C.) was “complete within one hour”. For the same substance, the “total amount of F-PKB detected versus incubation time” value in the data set with HT1080 cells (1 μM, 37° C., 5 min adsorption, wash, varying incubation, UVA 10 s) was “increased over the initial hour of incubation and then stabilized”. Also, the “amount of F-PKB measured per cell” value with HT1080 cells (1 μM, 4° C.) is reported as “reduced”. Besides, in the data set with HT1080 cells (1 μM, 23° C. and 37° C.), the “amount of F-PKB measured per cell” value was “similar”. In addition, the “F-PKB present in the phosphorylated form” value with PKB [1] (1 μM extracellular, UVA 10 s, n=15) turned out to be 67±7%. Besides, in the data set with PKB [1] (1 μM, 37° C.), the “percentage of phosphorylated F-PKB versus incubation time” value is reported as “did not vary with the incubation time” and the “time scale on which F-PKB is accessible to kinase” value is recorded as under 30 min. In addition, the “phosphorylation of F-PKB” value with PKB [1] (1 μM, 4° C.) was “Essentially no phosphorylation”. In addition, the “percentage of phosphorylated F-PKB” value in the data set with PKB [1] (1 μM, 23° C. and 37° C.) was “similar”. In addition, in data set [2] (10 s UVA exposure), the conjugate photoreleased is 2%. Further, the “time to maximal cleavage of substrate peptide from TAT(49-57)” value in data set [2] (UVA, 1 nM or 10 μM solution) is at most 20 min. Besides, the free substrate peptide result in data set [2] (without UVA illumination) was “no free substrate peptide could be detected”. In the data set with PKB [3], the “phosphorylation of released F-PKB” value was “not seen”.

For the substance “KKALHRQETVDALCRKKRRQRRR [F-CamKII-PLL-TAT]”, in the data set on HT1080 cells (300 nM extracellular), the “average concentration of F-CamKII in the cytosol” value came to 180 nM. Besides, in the data set with HT1080 cells (300 nM extracellular, n=3), the “detectable F-CamKII per cell” value was determined as 1.8e-19 ± 1.9e-19 mol. The “total F-CamKII phosphorylated” value with CamKII (300 nM extracellular, ionomycin 500 nM 15 min, n=3) is given as 67±17%.

“Gly Arg Pro Arg Ala Ala Thr Phe Ala Glu Gly (GRPRAATFAEG-NH2; not fully specified (N-terminus); printed as Gly Arg Pro Arg Ala Ala Thr Phe Ala Glu Gly; also: fluorescein label, position not given here) [F-PKB, fluorescein-labeled substrate for protein kinase B]”: in the data set with PKB [1] (microinjected), the “peptide phosphorylated at steady state” value is “approximately 70%” and the “time to steady state of phosphorylation” value was “less than 2 min”.

“KKALHRQETVDALCRKKRRQRRR [F-CamKII-C-SS-TAT]”: the “average number of moles per cell” value in the data set on HT1080 cells (750 nM extracellular, ionomycin-treated cells) is about 2e-20 mol. Further, the cytosolic concentration with HT1080 cells (750 nM extracellular, ionomycin-treated cells, 1 pL cell volume assumed) is reported as about 100 nM. In addition, the “F-CamKII-C phosphorylated (mean±SEM)” value in the data set on CamKII (750 nM extracellular, ionomycin 500 nM 15 min, n=5) is 52+3%.

Regarding “Lys Lys Ala Leu His Arg Gln Glu Thr Val Asp Ala Leu Cys (KKALHRQETVDALC-NH2; not fully specified (N-terminus); printed as Lys Lys Ala Leu His Arg Gln Glu Thr Val Asp Ala Leu Cys; also: fluorescein label, position not given here) [F-CamKII-C, fluorescein-labeled CamKII substrate with added cysteine]”, the “phosphorylation in unstimulated cells” value in the data set on CamKII (HT1080 cells, no constitutive CamKII activity) is on record as “little to no phosphorylation”.

The values are drawn from patent US20050282239A1, “Cell-permeable enzyme activation reporter that can be loaded in a high throughput and gentle manner” (priority 2003, published 2005).
